Results: patent US6379664
Each block holds one binder with its values, some of them ahead of it.

Assays:
[1] = target: BSA-GSH mixed disulfide, P02769
[2] = target: G3PD from H2O2 (0.5 mM) pretreated rabbit lens epithelial cells
[3] = target: alpha crystallin-GSH mixed disulfide
[4] = target: alpha crystalline-cystine mixed disulfide
[5] = target: gamma crystallin-GSH mixed disulfide
[6] = target: protein-cysteine mixed disulfides (PSSC); assay: cell-based or functional assay

Chain of BSA-GSH mixed disulfide, P02769 (P02769 25-607): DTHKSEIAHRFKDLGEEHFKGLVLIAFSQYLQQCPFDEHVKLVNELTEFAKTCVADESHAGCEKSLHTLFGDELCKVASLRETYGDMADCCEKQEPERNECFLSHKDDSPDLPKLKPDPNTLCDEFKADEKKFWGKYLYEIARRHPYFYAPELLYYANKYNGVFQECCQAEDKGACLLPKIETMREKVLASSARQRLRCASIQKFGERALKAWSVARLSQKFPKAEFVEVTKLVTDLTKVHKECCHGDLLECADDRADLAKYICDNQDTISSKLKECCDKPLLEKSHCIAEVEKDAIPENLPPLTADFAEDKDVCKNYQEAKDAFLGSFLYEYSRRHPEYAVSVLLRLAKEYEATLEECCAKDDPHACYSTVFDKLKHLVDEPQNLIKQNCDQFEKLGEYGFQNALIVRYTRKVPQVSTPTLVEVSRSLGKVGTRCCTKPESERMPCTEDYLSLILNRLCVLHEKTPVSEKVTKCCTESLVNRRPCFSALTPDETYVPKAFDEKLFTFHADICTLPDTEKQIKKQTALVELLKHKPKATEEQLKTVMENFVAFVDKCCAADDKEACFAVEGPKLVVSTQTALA

B1: recombinant human lens thioltransferase (protein)
chain: AQEFVNCKIQPGKVVVFIKPTCPFCVKTQELLSQLPFKEGLLEFVDITATSDTNEIQDYLQQLTGARTVPRVFIGKECIGGCTDLESMHKRGELLTRLQQIGALK
- dethiolation of 3H-PSSG (nmol dethiolated per µg thioltransferase protein; TCA-soluble radioactivity) [1]: 0.3 nmol/µg thioltransferase
- regeneration of G3PD activity (percent of activity regenerated by 30 mM DTT) [2]: regeneration of G3PD from H2O2 (0.5 mM) pretreated rabbit cells by recombinant human lens thioltransferase
- dethiolation of 3H-PSSG (nmol dethiolated per µg thioltransferase protein; TCA-soluble radioactivity) [3]: 0.6 nmol/µg thioltransferase
- dethiolation of 14C-PSSC [4]: alpha crystalline-cystine mixed disulfide could not be dethiolated by lens thioltransferase
- dethiolation of 3H-PSSG (nmol dethiolated per µg thioltransferase protein; TCA-soluble radioactivity) [5]: 1.15 nmol/µg thioltransferase
- substrate preference in dethiolation [5]: Gamma crystallin-thiol mixed disulfide appears to be the favorable substrate for lens thioltransferase

- dethiolation of PSSC relative to PSSG [6]: 50 to 60%
B2: recombinant human lens thioltransferase, P12309 2-106 (enzyme)
chain: B1 chain
